Reference: patent publication US20100310542A1, “Pharmaceutical Compositions for treating wouds and related methods” (HEALOR LTD., priority 2007, published 2010)

Tested on: keratin 1
Experiment: keratin 1 expression by Western blot in keratinocytes
Format: cell-based, mice
Conditions: visfatin 0.0001 μg/ml or L-alpha 100 ng/ml, 24 hours after calcium-induced differentiation
Text: Medium A and B are both EMEM eagle's minimal essential medium from Biological Industries (Israel) containing 8% CHELEX™ treated fetal bovine serum. CHELEX™ is a strong chelator which binds free Ca^2+ and Mg^2+ ions to prevent these ions from being bioavailable to the cultured cells.
Primary skin keratinocytes isolated from the tails of adult mice (7-10 months up to 2 years) were maintained in medium A (MEM) as described above. After 5 days in (medium A), the growth medium in half of the cultured plates was replaced with medium B (as described above)
Next visfatin or L-alpha were each individually added to cells cultured in medium A (FIG. 19A) and cells cultured in medium B (FIG. 19B) as indicated in FIG. 19. The final concentration in the culture medium of visfatin was 0.0001 μg/ml visfatin. The final concentration in the culture medium of L-alpha was 100 ng/ml.
Cell differentiation was induced by elevating calcium from 0.05 mM to 0.12 mM as described above. Twenty-four (24) hours after differentiation cells were harvested and Western Blot analysis was performed. […] Keratin 1 expression was then quantified using standard densitometric methods […]
Cell differentiation was then induced by elevating calcium levels in the culture medium from 0.05 mM to 0.12 mM. […] Expression was assessed using standard Western blotting and densitometry techniques.

B1: visfatin: murine visfatin (ALEXIS), adipocytokine that functions as an insulin analog (protein, UniProt Q99KQ4 1-491, looked up)
Nicotinamide …: MNAAAEAEFNILLATDSYKVTHYKQYPPNTSKVYSYFECREKKTENSKVRKVKYEETVFYGLQYILNKYLKGKVVTKEKIQEAKEVYREHFQDDVFNERGWNYILEKYDGHLPIEVKAVPEGSVIPRGNVLFTVENTDPECYWLTNWIETILVQSWYPITVATNSREQKKILAKYLLETSGNLDGLEYKLHDFGYRGVSSQETAGIGASAHLVNFKGTDTVAGIALIKKYYGTKDPVPGYSVPAAEHSTITAWGKDHEKDAFEHIVTQFSSVPVSVVSDSYDIYNACEKIWGEDLRHLIVSRSTEAPLIIRPDSGNPLDTVLKVLDILGKKFPVTENSKGYKLLPPYLRVIQGDGVDINTLQEIVEGMKQKKWSIENVSFGSGGALLQKLTRDLLNCSFKCSYVVTNGLGVNVFKDPVADPNKRSKKGRLSLHRTPAGNFVTLEEGKGDLEEYGHDLLHTVFKNGKVTKSYSFDEVRKNAQLNIEQDVAPH
expression of keratin 1 (medium A (no KCl)): decreased relative to the control sample
expression of keratin 1 (medium B (KCl 0.4 mg/ml)): not significantly altered
